Columns and labels:
[1] = target: T1, Recombinant His-tagged human IL-6Rα (human, UniProt P08887 20-365, limits assumed); experiment: competition ELISA: inhibition of IL-6/IL-6Rα complex binding to coated gp130-Fc (trans-binding)
T1 construct: Bought from GenScript; also called sIL-6Rα; not shown: His tag
T1 sequence (looked up): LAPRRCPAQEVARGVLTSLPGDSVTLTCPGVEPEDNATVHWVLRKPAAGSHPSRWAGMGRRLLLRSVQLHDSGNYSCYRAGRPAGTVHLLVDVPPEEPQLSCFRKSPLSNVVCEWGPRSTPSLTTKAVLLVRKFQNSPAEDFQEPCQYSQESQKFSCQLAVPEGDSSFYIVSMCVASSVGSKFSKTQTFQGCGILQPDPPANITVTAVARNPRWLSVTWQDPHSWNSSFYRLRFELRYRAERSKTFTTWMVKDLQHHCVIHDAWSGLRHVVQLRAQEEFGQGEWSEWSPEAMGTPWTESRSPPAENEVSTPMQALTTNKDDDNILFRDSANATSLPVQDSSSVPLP

[2] = target: T1, Recombinant His-tagged human IL-6Rα; experiment: competition ELISA: inhibition of IL-6 binding to coated IL-6Rα (cis-binding)

IC50 [1]: 0.1 µg/mL
IC50 [2]: 0.935 µg/mL
B1: Tocilizumab (antibody, V domains shown)
VH: QVQLQESGPGLVRPSQTLSLTCTVSGYSITSDHAWSWVRQPPGRGLEWIGYISYSGITTYNPSLKSRVTMLRDTSKNQFSLRLSSVTAADTAVYYCARSLARTTAMDYWGQGSLVTVSS
VL: DIQMTQSPSSLSASVGDRVTITCRASQDISSYLNWYQQKPGKAPKLLIYYTSRLHSGVPSRFSGSGSGTDFTFTISSLQPEDIATYYCQQGNTLPYTFGQGTKVEIKR
